Substrate in data set [1]: NCCCCNCCCN
Kind of data set: purified protein. Format: biochemical, Trypanosoma brucei. As to conditions: 1 mM NAD+, 15 μM TbeIF5A, 5 nM DHS; labelled compound.

Substrate in data set [2]: NC(=O)c1ccc[n+]([C@@H]2O[C@H](COP(=O)(O)OP(=O)(O)OC[C@H]3O[C@@H](n4cnc5c(N)ncnc54)[C@H](O)[C@@H]3O)[C@@H](O)[C@H]2O)c1
The data set can be described thus: purified protein. Type of data set: biochemical, Trypanosoma brucei. As to conditions: 78 μM [14C]spermidine, 15 μM TbeIF5A, 5 nM DHS; varied: cofactor.

Data set [3] deals with T1, Trypanosoma brucei deoxyhypusine synthase, catalytic paralog (TbDHSc), His-SUMO tag removed (T. brucei, UniProt Q38BX0 1-461).
T1 sequence: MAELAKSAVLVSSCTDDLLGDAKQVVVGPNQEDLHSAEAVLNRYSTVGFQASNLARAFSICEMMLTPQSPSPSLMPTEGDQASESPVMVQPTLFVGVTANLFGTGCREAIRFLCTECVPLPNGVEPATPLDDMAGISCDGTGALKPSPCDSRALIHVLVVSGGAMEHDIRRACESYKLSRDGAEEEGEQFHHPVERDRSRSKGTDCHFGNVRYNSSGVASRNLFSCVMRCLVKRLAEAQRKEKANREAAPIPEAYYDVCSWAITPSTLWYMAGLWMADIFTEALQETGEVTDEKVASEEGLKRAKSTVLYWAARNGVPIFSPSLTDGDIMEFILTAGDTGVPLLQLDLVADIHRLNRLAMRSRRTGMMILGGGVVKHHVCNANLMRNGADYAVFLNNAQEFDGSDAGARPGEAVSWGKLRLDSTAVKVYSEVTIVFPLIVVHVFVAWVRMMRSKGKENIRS
The data set can be described thus: crystal structure.

The text below walks through data of PMC6221947 (Structure (London, England : 1993), 2018).

B1: TbDHSc:DHSp (Trypanosoma brucei brucei TREU927) (protein)
chain 1: T1 sequence
chain 2: MSGVPFPSRVIGDLDYSNLLNIGQEEAIRCVLNAYPNIGLEATNLGRARRIVQRALNDNGMDGNKVMLAYTSNLISSGLRDTFACLARENRIGAVVTTAGGVEEDVIKCLGDTLVGDFALNDHALRNNGLNRVGNLLVPNDNYRNFEDFFVPLLRRLHEQQRDSRWTTKTTPSQIIAEIGAALESVRPNDCGSSLIYWCYRNDIPVFSPAFTDGSMGDMIYFYNYSRKGLVVDPVPDVRRLRQLGCKSTNVGRITCIVLGAGLPKHHLLRNVQADAVVYVTTGSDADGCESSCNVMADRANGLLSPNCDVVRVHGDATIISPLLLLRSSDGKEKVGVREDGN
As usually defined, the Km is the substrate concentration at which the rate is half of its maximum. What is called kcat is the number of substrate molecules converted per active site and unit of time at saturation. For the molecule B1, in data set [1], the Km came out at 9.8 ± 1.2 µM and the kcat was found to be 0.18 ± 0.01 s⁻¹. In data set [2], the Km stood at 1.3 ± 0.18 µM and the kcat worked out at 0.15 ± 0.0045 s⁻¹.

B2: Trypanosoma brucei deoxyhypusine synthase prozyme paralog (TbDHSp), untagged (natural protein, T. brucei, UniProt Q4GZD1 1-342, looked up)
chain: B1 chain 2
B2: the binding result in data set [3] is “binds”.
